Experimental data reported in patent US20080280308A1.

How the values were obtained:
[1] = target: human thrombin receptor (PAR1) (human) (UniProt P25116); experiment: ELISA, purified MBP-Gαq on reconstituted PAR1 with thrombin receptor activating peptide
[2] = target: light-activated rhodopsin (bovine) (UniProt P02699); experiment: ELISA, MBP fusion on light-activated rhodopsin
[3] = target: β2 adrenergic receptor; experiment: ELISA of panned Gs library clones on reconstituted receptor

Chain of human thrombin receptor (PAR1) (human) (P25116 42-425): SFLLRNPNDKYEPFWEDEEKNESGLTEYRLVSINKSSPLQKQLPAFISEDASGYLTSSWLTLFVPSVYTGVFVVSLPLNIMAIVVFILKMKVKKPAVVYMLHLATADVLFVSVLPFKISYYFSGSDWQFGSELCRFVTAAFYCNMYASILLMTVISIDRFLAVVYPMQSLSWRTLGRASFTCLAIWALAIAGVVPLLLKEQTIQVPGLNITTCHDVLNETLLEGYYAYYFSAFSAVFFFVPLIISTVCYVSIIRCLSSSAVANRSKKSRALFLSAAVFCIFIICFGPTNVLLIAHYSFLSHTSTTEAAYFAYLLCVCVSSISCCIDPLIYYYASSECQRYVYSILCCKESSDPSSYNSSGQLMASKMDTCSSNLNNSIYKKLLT
Chain of light-activated rhodopsin (bovine) (P02699 whole entry, the tested form may be a part): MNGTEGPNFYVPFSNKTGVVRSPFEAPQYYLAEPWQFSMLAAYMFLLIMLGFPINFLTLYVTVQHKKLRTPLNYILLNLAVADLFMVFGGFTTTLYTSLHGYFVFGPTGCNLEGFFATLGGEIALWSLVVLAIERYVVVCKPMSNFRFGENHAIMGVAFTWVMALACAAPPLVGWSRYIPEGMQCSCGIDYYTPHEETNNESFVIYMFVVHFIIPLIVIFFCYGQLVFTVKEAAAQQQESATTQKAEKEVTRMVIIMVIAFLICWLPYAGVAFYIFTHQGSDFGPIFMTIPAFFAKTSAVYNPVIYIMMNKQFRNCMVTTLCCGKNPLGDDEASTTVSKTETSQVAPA

| ELISA [3] | Molecule | also measured |
| --- | --- | --- |
|  | maltose binding protein-Gαq (MBP-Gαq) | IC50 [1]: 0.214 µM |
|  | MBP-Gαt340-350K341R | IC50 [2]: 6 µM |
| 0.361 | PRPRLLRFKIP [AG19 …] |  |
| 0.155 | QRMNLGPCGLL [AG18 …] |  |
| 0.047 | ERLHRRLFQLH [BAR8 …] |  |
| 0.054 | QRLHLRGYEFL [AG13 …] |  |
| 0.19 | QRMPLRQYELL [AG9 …] |  |
| 0.048 | HRRHIGPFALL [BAR11 …] |  |
| 0.291 | QRLRLGPDELF [AG4 …] |  |
| 0.079 | NCMKFRSCGLF [BAR20 …] |  |
| 0.192 | DRMHLWRFGLL [AG11 …] |  |
| 0.431 | RWLHWQYRGRG [AG20 …] |  |
| 0.435 | QGMQLRRFKLR [AG1 …] |  |
| 0.217 | QRMPLRLFEFL [AG3 …] |  |
| 0.218 | QRIHRRPFKFF [BAR1 …] |  |
| 0.197 | QRVHLRQDELL [BAR2 …] |  |
| 0.028 | PCIQLGQYESF [BAR40 …] |  |
| 0.185 | QWMDLRQHELL [BAR3 …] |  |
| 0.33 | QGEHLRQLQLQ [AG2 …] |  |
| 0.026 | QRLRLRKYRLF [BAR31 …] |  |
